Measurements reported in PMC3201864.

Assays:
[1] = molecular target: T1, CELF1 T187 (RRM1-RRM2) (Xenopus, UniProt O57406 1-187); assay: gel filtration
[2] = molecular target: T2, CELF1 RRM1 (Xenopus, UniProt O57406 1-101); assay: ESI-MS
[3] = molecular target: T1, CELF1 T187 (RRM1-RRM2); assay: NMR titration
[4] = molecular target: T1, CELF1 T187 (RRM1-RRM2); assay: ESI-MS
[5] = molecular target: T2, CELF1 RRM1; assay: gel filtration
[6] = molecular target: CELF1 RRM2 (Xenopus, UniProt O57406 108-187); assay: gel filtration
CELF1 RRM2, sequence (O57406 108-187): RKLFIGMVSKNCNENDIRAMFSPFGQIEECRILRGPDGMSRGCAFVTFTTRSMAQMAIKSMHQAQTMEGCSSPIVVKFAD

[7] = molecular target: T1, CELF1 T187 (RRM1-RRM2); assay: gel filtration; remark: listed apart in the source
[8] = molecular target: T1, CELF1 T187 (RRM1-RRM2); assay: gel filtration; remark: listed apart in the source
[9] = molecular target: T2, CELF1 RRM1; assay: NMR titration
[10] = molecular target: T1, CELF1 T187 (RRM1-RRM2); assay: EMSA
[11] = molecular target: T1, CELF1 T187 (RRM1-RRM2); assay: EMSA; remark: listed apart in the source
[12] = molecular target: T1, CELF1 T187 (RRM1-RRM2); assay: gel filtration; remark: listed apart in the source
[13] = molecular target: T1, CELF1 T187 (RRM1-RRM2); assay: ITC
[14] = molecular target: T2, CELF1 RRM1; assay: gel filtration; remark: listed apart in the source

T2 sequence (O57406 1-101): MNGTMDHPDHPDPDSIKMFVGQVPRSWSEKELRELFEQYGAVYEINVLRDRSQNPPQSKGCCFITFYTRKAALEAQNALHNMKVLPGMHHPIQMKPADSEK
T1 sequence (O57406 1-187): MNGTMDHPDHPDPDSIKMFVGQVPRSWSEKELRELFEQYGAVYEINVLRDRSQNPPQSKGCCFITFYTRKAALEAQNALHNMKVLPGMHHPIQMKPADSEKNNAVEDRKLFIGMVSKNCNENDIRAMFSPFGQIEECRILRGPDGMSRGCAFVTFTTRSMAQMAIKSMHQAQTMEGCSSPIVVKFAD

B1: CUG15 (ssRNA)
RNA: CUGCUGCUGCUGCUG
binding result [1]: binds

B2: EDEN9 (ssRNA)
RNA: UUGUUUGUU
binding result [2]: binds

B3: EDEN3U (x=3) (ssRNA)
RNA: UGUUUUUGU
binding result [3]: binds

B4: EDEN11 (GRE) (ssRNA)
RNA: UGUUUGUUUGU
binding result [4]: binds

B5: ARE7 (ssRNA)
RNA: UAUUUAU
binding result [5]: no binding
binding result [6]: no binding
binding result [7]: no binding

B6: UG15 (GU15 in text) (ssRNA)
RNA: UGUGUGUGUGUGUGU
binding result [8]: binds

B7: CUG2 (ssRNA)
RNA: CUGCUG
binding result [9]: binds

B8: ARE15 (ssRNA)
RNA: UAUUUAUUUAUUUAU
binding result [10]: no binding

B9: GUCU15 (ssRNA)
RNA: UGUCUGUCUGUCUGU
binding result [11]: binds

B10: EDEN15 (ssRNA)
RNA: UGUUUGUUUGUUUGU
binding result [12]: binds

B11: UGU (ssRNA)
RNA: UGU
Kd [13]: 64 ± 2 µM

B12: EDEN7m (ssRNA)
RNA: UGUUUAU
binding result [14]: binds
